We go through one substance from patent EP0723402B1.

The target in this experiment is cyclin/cdk2 complexes immunoprecipitated from HeLa cell extracts by cdk2 antisera (UniProt P24941). The experiment in a line: cell-based or functional assay.

The substance “GST-SDI-1 fusion protein (Schistosoma japonicum glutathione S-transferase amino acids 1-226, hinge Pro-Arg-Gly-Asp-Pro-Pro-Ala, SDI-1)” had a half maximal inhibition of histone H1 kinase activity of 250 ng.
